The record followed here is patent US7597889.

Experiment [1] deals with human FcγRI (human) (UniProt P12314). In words: rosetting after centrifuging RBC coated with 1 µg/ml Fog-1 G1 together with B2KA cells.
Experiment [2] has the same target. Description: rosetting of FcγRI-bearing B2KA cells by R2R2 RBC coated with Ab; coating concentration.
The target is the same in experiment [3]. In words: fluorescent staining of FcγRI transfectants, flow cytometry.
Experiment [4] has as its target FcγRIIa 131H/H (human) (UniProt P12318). In words: staining of 3T6+FcγRIIa 131H/H cells with complexed Ab (summary).
UniProt P12318, sequence (P12318 34-317): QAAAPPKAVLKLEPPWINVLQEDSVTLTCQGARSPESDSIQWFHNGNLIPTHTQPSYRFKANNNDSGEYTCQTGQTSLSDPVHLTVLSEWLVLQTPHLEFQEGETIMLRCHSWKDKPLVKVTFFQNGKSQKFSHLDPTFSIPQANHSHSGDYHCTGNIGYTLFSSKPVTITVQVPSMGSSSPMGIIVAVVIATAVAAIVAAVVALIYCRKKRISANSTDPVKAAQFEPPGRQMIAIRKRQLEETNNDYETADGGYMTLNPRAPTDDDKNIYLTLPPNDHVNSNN

UniProt P12314, sequence (P12314 16-374): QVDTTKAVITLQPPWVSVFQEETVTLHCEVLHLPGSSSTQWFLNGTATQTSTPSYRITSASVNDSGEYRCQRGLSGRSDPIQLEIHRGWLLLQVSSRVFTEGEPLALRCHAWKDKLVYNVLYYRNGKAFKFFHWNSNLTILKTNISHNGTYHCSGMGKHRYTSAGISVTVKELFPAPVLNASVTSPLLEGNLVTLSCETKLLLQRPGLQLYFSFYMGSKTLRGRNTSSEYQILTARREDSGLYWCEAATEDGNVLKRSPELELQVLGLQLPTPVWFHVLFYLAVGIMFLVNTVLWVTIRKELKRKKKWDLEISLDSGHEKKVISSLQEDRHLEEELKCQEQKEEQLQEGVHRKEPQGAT

For the substance Fog-1 G1 (antibody), the percent of B2KA cells with rosettes in experiment [1] is 95%. The EC50 in experiment [2] is 0.1 µg/mL. Turning to Fog-1 G1Δab (antibody), the fold reduction of binding against the parent subclass in experiment [3] was more than 10000 fold. For the substance Fog-1 G1Δa (antibody), the EC50 in experiment [2] stood at 0.1 µg/mL. On to CAMPATH-1 G4Δb (antibody), for which the fold reduction of binding against the parent subclass in experiment [3] is more than 10000 fold. On the same count and under the same terms, the result for Fog-1 G4Δc (antibody) reads more than 10000 fold.

As to CAMPATH-1 G4Δc (antibody), in experiment [3], the fold reduction of binding against the parent subclass is more than 10000 fold.

For the substance CAMPATH-1 G1Δab (antibody), in experiment [3], the fold reduction of binding against the parent subclass is more than 10000 fold. The same measure, in the same setting: the figure for CAMPATH-1 G1Δac (antibody) is more than 10000 fold.

As to Fog-1 G1Δac (antibody), the fold reduction of binding against the parent subclass in experiment [3] was more than 10000 fold. For the substance Fog-1 G1Δb (antibody), in experiment [3], the fold reduction of binding against the parent subclass is more than 10000 fold. This substance also came in with a fold lower activity than IgG1 in experiment [4] of 50 fold.

With CAMPATH-1 G1Δb (antibody), in experiment [3], the fold reduction of binding against the parent subclass was more than 10000 fold. Take Fog-1 G4Δb (antibody): the fold reduction of binding against the parent subclass in experiment [3] is more than 10000 fold. As for Fog-1 G1Δc (antibody), the fold reduction of binding against the parent subclass in experiment [3] was more than 10000 fold. Also, the fold lower activity than IgG1 in experiment [4] worked out at 10 fold. On to CAMPATH-1 G1Δc (antibody), for which the fold reduction of binding against the parent subclass in experiment [3] is more than 10000 fold.
